# Data reported in article PMC9045261.
# Molecular target: OXAVL02 (OXA-1089)
# Assay: SEC-MALS; active SEC fractions dialyzed against PBS (Na2HPO4 10 mM, KH2PO4 1.8 mM, NaCl 137 mM, KCl 2.7 mM, pH 7.4); 100 uL at 0.5 to 1 mg/mL on Superdex 200 Increase 10/300; UV, MALS and refractive index detectors; monomer-dimer equilibrium
substance,measurement,value
OXAVL02 (OXA-1089) (enzyme),stoichiometry N,2
